Here are results for 5 molecules from PMC3526283, “DNA-binding determinants promoting NHEJ by human Polµ”.

In data set [1] the target is T1, DNA polymerase mu (Polµ) (Homo sapiens, UniProt Q9NP87 1-494). The experiment in a line: EMSA; EMSA: 50 mM Tris-HCl pH 7.5, 0.1 mg/ml BSA, 1 mM DTT, 4% glycerol, 5 nM DNA, 10 min at 30°C; footprinting: same buffer, 30 nM DNA, 37°C (2.5 mM MgCl2 and 100 µM dNTP where stated). To be noted: protein: recombinant, tags: pRSETA-hPolµ construct. Background: A gel shift assay detects complexes by their altered migration in electrophoresis.
T1 sequence (Q9NP87 whole entry): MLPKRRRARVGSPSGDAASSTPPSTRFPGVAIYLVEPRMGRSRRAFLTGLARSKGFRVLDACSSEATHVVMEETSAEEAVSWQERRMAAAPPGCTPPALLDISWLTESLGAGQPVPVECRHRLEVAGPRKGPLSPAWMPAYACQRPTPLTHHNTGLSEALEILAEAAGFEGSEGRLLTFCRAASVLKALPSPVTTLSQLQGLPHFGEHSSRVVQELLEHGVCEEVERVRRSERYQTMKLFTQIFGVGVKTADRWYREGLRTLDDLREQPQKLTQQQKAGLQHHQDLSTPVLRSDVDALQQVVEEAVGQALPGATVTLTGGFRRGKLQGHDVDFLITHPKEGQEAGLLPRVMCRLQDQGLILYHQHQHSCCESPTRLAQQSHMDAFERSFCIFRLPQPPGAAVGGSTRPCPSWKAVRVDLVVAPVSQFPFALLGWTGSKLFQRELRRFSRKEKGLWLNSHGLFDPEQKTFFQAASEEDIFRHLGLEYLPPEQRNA

For data set [2], the target named is T2, Polµ-ΔBRCT (Homo sapiens, UniProt Q9NP87 138-494). Kind of data set: EMSA; 300 and 600 nM protein; EMSA: 50 mM Tris-HCl pH 7.5, 0.1 mg/ml BSA, 1 mM DTT, 4% glycerol, 5 nM DNA, 10 min at 30°C; footprinting: same buffer, 30 nM DNA, 37°C (2.5 mM MgCl2 and 100 µM dNTP where stated). The following applies: protein: recombinant; tags: pRSETA construct; label: 32P; 3' overhang 2 nt (text says 3 nt), other end blunt.
T2 sequence (Q9NP87 138-494, stated change not applied): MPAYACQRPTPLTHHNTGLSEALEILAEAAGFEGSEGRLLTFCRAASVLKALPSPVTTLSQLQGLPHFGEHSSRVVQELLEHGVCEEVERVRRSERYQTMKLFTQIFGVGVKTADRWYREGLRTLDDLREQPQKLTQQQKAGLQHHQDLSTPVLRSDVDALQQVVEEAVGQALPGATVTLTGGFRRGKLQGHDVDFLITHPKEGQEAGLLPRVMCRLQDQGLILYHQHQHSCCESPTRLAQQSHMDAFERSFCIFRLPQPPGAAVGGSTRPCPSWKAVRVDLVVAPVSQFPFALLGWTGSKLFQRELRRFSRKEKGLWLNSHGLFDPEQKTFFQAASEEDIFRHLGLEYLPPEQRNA

In data set [3] the target is T2, Polµ-ΔBRCT. Kind of data set: EMSA; 5'-P assignment inferred: binding undetectable without it; EMSA: 50 mM Tris-HCl pH 7.5, 0.1 mg/ml BSA, 1 mM DTT, 4% glycerol, 5 nM DNA, 10 min at 30°C; footprinting: same buffer, 30 nM DNA, 37°C (2.5 mM MgCl2 and 100 µM dNTP where stated). To be noted: protein: recombinant; tags: pRSETA construct; label: 32P; 3' overhang 2 nt (text says 3 nt), other end blunt.

Data set [4] addresses T3, DNA polymerase beta (Polβ) (Homo sapiens, UniProt P06746 1-335). Kind of data set: EMSA; 100 nM protein; EMSA: 50 mM Tris-HCl pH 7.5, 0.1 mg/ml BSA, 1 mM DTT, 4% glycerol, 5 nM DNA, 10 min at 30°C; footprinting: same buffer, 30 nM DNA, 37°C (2.5 mM MgCl2 and 100 µM).
In data set [5] the target is T3, DNA polymerase beta (Polβ). Kind of data set: DNase I footprinting; 100 µM dTTP, 2.5 mM MgCl2; protects positions 36-45; EMSA: 50 mM Tris-HCl pH 7.5, 0.1 mg/ml BSA, 1 mM DTT, 4% glycerol, 5 nM DNA, 10 min at 30°C; footprinting: same buffer, 30 nM DNA, 37°C (2.5 mM MgCl2 and 100 µM).
For data set [6], the target named is T2, Polµ-ΔBRCT. Kind of data set: DNase I footprinting; protects 10 nt, no downstream extension; EMSA: 50 mM Tris-HCl pH 7.5, 0.1 mg/ml BSA, 1 mM DTT, 4% glycerol, 5 nM DNA, 10 min at 30°C; footprinting: same buffer, 30 nM DNA, 37°C (2.5 mM MgCl2 and 100 µM dNTP where stated). To be noted: protein: recombinant; tags: pRSETA construct; label: 32P at 5' end of FP-T; 1-nt gap, three strands; template FP-T, primer FP-P, downstream FP-D; otherwise blunt.

In data set [7] the target is T1, DNA polymerase mu (Polµ). Kind of data set: DNase I footprinting; 100 µM dTTP, 2.5 mM MgCl2; protects positions 36-52; EMSA: 50 mM Tris-HCl pH 7.5, 0.1 mg/ml BSA, 1 mM DTT, 4% glycerol, 5 nM DNA, 10 min at 30°C; footprinting: same buffer, 30 nM DNA, 37°C (2.5 mM MgCl2 and 100 µM dNTP where stated). To be noted: protein: recombinant; tags: pRSETA-hPolµ construct; label: 32P at 5' end of FP-T; 1-nt gap, three strands; template FP-T, primer FP-P, downstream FP-D; otherwise blunt.

In a further data set the target is Polµ H329G (Homo sapiens, UniProt Q9NP87 1-494, H329G). The experiment in a line: DNase I footprinting; with/without dATP or dTTP; no expansion with nucleotide, no downstream BRCT extension; EMSA: 50 mM Tris-HCl pH 7.5, 0.1 mg/ml BSA, 1 mM DTT, 4% glycerol, 5 nM DNA, 10 min at 30°C; footprinting: same buffer, 30 nM DNA, 37°C (2.5 mM MgCl2 and 100 µM dNTP where stated). The following applies: protein: recombinant; label: 32P at 5' end of FP-T; 1-nt gap, three strands; template FP-T, primer FP-P, downstream FP-D; otherwise blunt.
Chain of Polµ H329G (Q9NP87 whole entry H329G): as the sequence (Q9NP87 whole entry) above, with H329G counted along it

The target in the next data set is Polµ R387A (Homo sapiens, UniProt Q9NP87 1-494, R387A). Kind of data set: DNase I footprinting; footprint expands to primer side with dTTP; downstream extension only partly recovered with dTTP; EMSA: 50 mM Tris-HCl pH 7.5, 0.1 mg/ml BSA, 1 mM DTT, 4% glycerol, 5 nM DNA, 10 min at 30°C; footprinting: same buffer, 30 nM DNA, 37°C (2.5 mM MgCl2 and 100 µM dNTP where stated). The following applies: protein: recombinant, label: 32P at 5' end of FP-T, 1-nt gap, three strands, template FP-T, downstream FP-D, otherwise blunt.
Chain of Polµ R387A (Q9NP87 whole entry R387A): as the sequence (Q9NP87 whole entry) above, with R387A counted along it

Where [8] appears, read: label: 32P at 5' end of Sp1C, 1-nt gap, three strands, otherwise blunt.
The mark [9] stands for this setting: label: 32P, 3' overhang 2 nt (text says 3 nt), other end blunt.

As usually defined, the Kd is the concentration at which binding is half-saturated.

B1: 1-nt gap Sp1C/T28/D12, 5'-OH (dsDNA)
DNA 1: AGAAGTGTATCTCGTACTCACTGTGATC
DNA 2: GATCACAGTGAGTAC
DNA 3: AGATACACTTCT
As to B1, in the data set with DNA polymerase mu (Polµ) [1] (setting [8]), the dissociation constant Kd turned out to be 0.5 µM.

B2: 3'-protruding end GT/NHEJ-D, 5'-OH (dsDNA)
DNA 1: CCCTCCCTCCCGT
DNA 2: GGGAGGGAGGG
B2: the dissociation constant (Kd) with DNA polymerase mu (Polµ) [1] (setting [9]) is 0.4 µM. Also, in the data set with Polµ-ΔBRCT [2], the binding result was “no binding”.

B3: 3'-protruding end GT/NHEJ-D, 5'-P (dsDNA)
DNA 1: CCCTCCCTCCCGT
DNA 2: GGGAGGGAGGG
modifications: 5'-phosphate on NHEJ-D (S15)
On to B3, for which the Kd was found to be 0.165 µM with DNA polymerase mu (Polµ) [1] (setting [9]) and 2 µM with Polµ-ΔBRCT [3].

B4: 1-nt gap Sp1C/T28/D12, 5'-P (dsDNA)
DNA 1: AGAAGTGTATCTCGTACTCACTGTGATC
DNA 2: GATCACAGTGAGTAC
DNA 3: AGATACACTTCT
modifications: 5'-phosphate on D12 (S3)
Regarding B4, the binding result in data set [4] is reported as “binds”. The dissociation constant Kd with DNA polymerase mu (Polµ) [1] (setting [8]) was 0.1 µM.

B5: footprint 1-nt gap FP-T/FP-P/FP-D, 5'-P (dsDNA)
DNA 1: GGCAGCTTGGATCTTGTCGAAAAACGTCAACATTCGCCTAGGCTTCGGCAATACTGAGGTCTTGTCGAAAAACGTCAACATTGCGTGGCC
DNA 2: GGCCACGCAATGTTGACGTTTTTCGACAAGACCTCAGTAT
DNA 3: GCCGAAGCCTAGGCGAATGTTGACGTTTTTCGACAAGATCCAAGCTGCC
modifications: 5'-phosphate on FP-D (S10)
For B5, the binding result (in data set [5]; with Polµ-ΔBRCT [6]; with DNA polymerase mu (Polµ) [7]; with Polµ H329G; in the data set with Polµ R387A) was “binds” throughout.
